Residue numbers refer to the chain shown, from its start.

Data set [1] concerns the target HA epitope tagged wild-type alpha-2B adrenergic receptor (human) (UniProt P18089). The data set is described as follows: cell-based or functional assay.
For data set [2], the target named is HA epitope tagged Del301-303 alpha-2B adrenergic receptor (human) (UniProt P18089). The data set is described as follows: cell-based or functional assay.
Data set [3] relates to HA epitope tagged Del301-303 alpha-2B adrenergic receptor.
The target in data set [4] is Gi. Briefly: cell-based or functional assay.
For data set [5], the target named is Gi/Go. The data set is described as follows: cell-based or functional assay.

For GRK2 (βARK1) (enzyme), the agonist-promoted whole cell receptor phosphorylation (norepinephrine, COS-7 cells coexpressing GRK2) (fold increase) in data set [1] worked out at 5.84; in data set [2], 3.28.

For the molecule GRK2 (βARK1), in data set [3], the “agonist-promoted phosphorylation as percent of wild-type” value is listed as “the Del301-303 receptor displayed -56% of wild-type phosphorylation” and the “basal phosphorylation, compared with the wild-type receptor” value is “Basal phosphorylation was equivalent between the two receptors”.

B1: Del322-325 alpha-2C adrenergic receptor, P18825 1-462 (receptor)
chain: MASPALAAALAVAAAAGPNASGAGERGSGGVANASGASWGPPRGQYSAGAVAGLAAVVGFLIVFTVVGNVLVVIAVLTSRALRAPQNLFLVSLASADILVATLVMPFSLANELMAYWYFGQVWCGVYLALDVLFCTSSIVHLCAISLDRYWSVTQAVEYNLKRTPRRVKATIVAVWLISAVISFPPLVSLYRQPDGAAYPQCGLNDETWYILSSCIGSFFAPCLIMGLVYARIYRVAKRRTRTLSEKRAPVGPDGASPTTENGLGAAAGAGENGHCAPPPADVEPDESSAAAERRRRRGALRRGGRRRAGAEGGAGGADGQGAAESGALTASRSPGPGGRLSRASSRSVEFFLSRRRRARSSVCRRKVAQAREKRFTFVLAVVMGVFVLCWFPFFFIYSLYGICREACQVPGPLFKFFFWIGYCNSSLNPVIYTVFNQDFRPSFKHILFRRRRRGFRQ
In data set [4], B1 registered a Max Inhibition (%) of adenylyl cyclase, BHT-933 of 26.7%; a Max Inhibition (%) of adenylyl cyclase, UK 14304 of 30.8%; a Max Inhibition (%) of adenylyl cyclase, clonidine of 20.9%; a Max Inhibition (%) of adenylyl cyclase, guanabenz of 30%. In data set [4], the Max Inhibition (%) of adenylyl cyclase, norepinephrine worked out at 34.9%; the Max Inhibition (%) of adenylyl cyclase, oxymetazoline is 12.8%; the impairment of maximal adenylyl cyclase inhibition against wild-type (higher expressing CHO lines) turned out to be 50 % impairment; the inhibition of adenylyl cyclase (epinephrine, lower expressing CHO lines) came out at 10 % inhibition. This molecule also had a maximal inhibition of adenylyl cyclase (epinephrine, higher expressing CHO lines) in data set [4] of 31 % inhibition. Besides, in data set [5], the epinephrine-stimulated accumulation of inositol phosphates (10 µM, intact CHO cells) is 11 % over basal; the high affinity dissociation constant KH of the agonist epinephrine (competition with [3H]yohimbine without GTP) stood at 7.3 nM; the impairment of inositol phosphate accumulation against wild-type is 60 % impairment; the percentage of receptors in the high-affinity state (% RH), epinephrine competition without GTP was 31%.

B2: polymorphic Lys251 alpha-2A adrenergic receptor, P08913 16-465 (receptor)
chain: MGSLQPDAGNASWNGTEAPGGGARATPYSLQVTLTLVCLAGLLMLLTVFGNVLVIIAVFTSRALKAPQNLFLVSLASADILVATLVIPFSLANEVMGYWYFGKAWCEIYLALDVLFCTSSIVHLCAISLDRYWSITQAIEYNLKRTPRRIKAIIITVWVISAVISFPPLISIEKKGGGGGPQPAEPRCEINDQKWYVISSCIGSFFAPCLIMILVYVRIYQIAKRRTRVPPSRRGPDAVAAPPGGTERRPKGLGPERSAGPGGAEAEPLPTQLNGAPGEPAPAGPRDTDALDLEESSSSDHAERPPGPRRPERGPRGKGKARASQVKPGDSLPRRGPGATGIGTPAAGPGEERVGAAKASRWRGRQNREKRFTFVLAVVIGVFVVCWFPFFFTYTLTAVGCSVPRTLFKFFFWFGYCNSSLNPVIYTIFNHDFRRAFKKILCRGDRKRIV
In the case of B2, in data set [4], the inhibition of adenylyl cyclase (epinephrine, CHO membranes) is 60 % inhibition; the maximal inhibition of adenylyl cyclase (partial agonist oxymetazoline, CHO membranes) is 50 % inhibition; the stimulation of MAP kinase (10 µM epinephrine, CHO cells) (fold increase over basal) turned out to be 57.

B3: wild-type Asn251 alpha-2A adrenergic receptor, P08913 16-465 (receptor)
chain: B2 chain with K251N
In data set [4], B3 registered an inhibition of adenylyl cyclase (epinephrine, CHO membranes) of 46 % inhibition; a maximal inhibition of adenylyl cyclase (partial agonist oxymetazoline, CHO membranes) of 35 % inhibition; a stimulation of MAP kinase (10 µM epinephrine, CHO cells) (fold increase over basal) of 15.

B4: wild-type alpha-2C adrenergic receptor, P18825 1-462 (receptor)
chain: MASPALAAALAVAAAAGPNASGAGERGSGGVANASGASWGPPRGQYSAGAVAGLAAVVGFLIVFTVVGNVLVVIAVLTSRALRAPQNLFLVSLASADILVATLVMPFSLANELMAYWYFGQVWCGVYLALDVLFCTSSIVHLCAISLDRYWSVTQAVEYNLKRTPRRVKATIVAVWLISAVISFPPLVSLYRQPDGAAYPQCGLNDETWYILSSCIGSFFAPCLIMGLVYARIYRVAKRRTRTLSEKRAPVGPDGASPTTENGLGAAAGAGENGHCAPPPADVEPDESSAAAERRRRRGALRRGGRRRAGAEGGAGGADGQGAGPGAAESGALTASRSPGPGGRLSRASSRSVEFFLSRRRRARSSVCRRKVAQAREKRFTFVLAVVMGVFVLCWFPFFFIYSLYGICREACQVPGPLFKFFFWIGYCNSSLNPVIYTVFNQDFRPSFKHILFRRRRRGFRQ
With B4, in data set [4], the Max Inhibition (%) of adenylyl cyclase, BHT-933 is 56.8%; the Max Inhibition (%) of adenylyl cyclase, UK 14304 was 67.6%; the Max Inhibition (%) of adenylyl cyclase, clonidine came to 38.5%; the Max Inhibition (%) of adenylyl cyclase, guanabenz was 53.8%. Besides, in data set [4], the Max Inhibition (%) of adenylyl cyclase, norepinephrine amounted to 76.6%; the Max Inhibition (%) of adenylyl cyclase, oxymetazoline worked out at 27%; the inhibition of adenylyl cyclase (epinephrine, lower expressing CHO lines) stood at 73 % inhibition; the maximal inhibition of adenylyl cyclase (epinephrine, higher expressing CHO lines) came out at 60 % inhibition. Moreover, in data set [5], the epinephrine-stimulated accumulation of inositol phosphates (10 µM, intact CHO cells) stood at 30 % over basal; the high affinity dissociation constant KH of the agonist epinephrine (competition with [3H]yohimbine without GTP) was found to be 3.7 nM; the percentage of receptors in the high-affinity state (% RH), epinephrine competition without GTP amounted to 49%.

Source of the values: patent US20030113725A1.
